For data set [1], the system named is Nc1ccn([C@H]2C[C@H](O)[C@@H](CO)O2)c(=O)n1. The data set can be described thus: purified protein. To be noted: PBS, 37 °C, 10 min, 4 nM enzyme. It counts as biochemical, Mesomycoplasma hyorhinis.
Data set [2] has as its system Nc1ccn([C@@H]2O[C@H](CO)[C@@H](O)C2(F)F)c(=O)n1. The data set can be described thus: purified protein. It counts as biochemical, Mesomycoplasma hyorhinis. To be noted: PBS, 37 °C, 10 min, 4 nM enzyme, fit up to 30 mM substrate, second KM at very high concentrations not determined.

As for “CDAHyor (M. hyorhinis cytidine deaminase) (Mesomycoplasma hyorhinis MCLD)”, in data set [1], the Km came to 2.586 ± 0.114 mM, the kcat was determined as 127 ± 2 s⁻¹ and the catalytic efficiency (kcat/Km) was 49000 M⁻¹ s⁻¹. In addition, in data set [2], the Km was found to be 9.064 ± 1.487 mM, the kcat was found to be 105 ± 7 s⁻¹ and the kcat/Km was 12000 M⁻¹ s⁻¹.

As a reminder, the Km is the concentration of substrate that gives half-maximal velocity. What is called kcat is the maximal rate divided by the concentration of active sites. For orientation: kcat/Km means the second-order rate constant that governs catalysis at low substrate concentration.

For the origin of these results see publication PMC4541722.
